Laboratory results reported in the supplement of paper PMC9170038.

Legend:
MS2 coat protein [1] = assay: apparent KD of MS2 coat protein; higher = weaker reporter binding; conditions: Eterna round: R101
Protocol: (§1)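 RNA-MaP: designed FMN/MS2 RNA switches (84 nt design region) are transcribed on-chip within common flanks and titrated with SNAP-549-labelled MS2 coat protein (about 1-3000 nM) in 100 mM Tris pH 7.5, 80 mM KCl, 4 mM MgCl2, without or with 200 uM FMN. Median apparent KD per design; activation ratio = KD,OFF / KD,ON.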

MS2 coat protein [2] = assay: apparent KD of MS2 coat protein; designed switch direction (-1 OFF switch, 1 ON switch): 1; higher = weaker reporter binding; conditions: Eterna round: R98
Protocol: as §1

Sequence | apparent KD of MS2 coat protein (MS2 coat protein [1]; input ligand: FMN 200 uM) [nM] | apparent KD of MS2 coat protein (MS2 coat protein [1]; input ligand: none) [nM] | apparent KD of MS2 coat protein (MS2 coat protein [2]; input ligand: FMN 200 uM) [nM] | apparent KD of MS2 coat protein (MS2 coat protein [2]; input ligand: none) [nM]
CCUGCACUUCAAGGAUAUCCAGUCGAAACGACUGGAGAAGGUGAGGAUCACCCAUCUAGCCUGACGAAAGUCAGGCAUGCAGGA [#SharedSequence - ExNG1-7] (puzzle (switch architecture): Exclusion NG 1) | 101 | 90.4 |  | 
GGUCGACCUCAAGGAUAUGGACUGCUUUGCAGUCCAGAAGGUGAGGAUCACCCAUCUACGGUCAGGUUUCUGACCGAUCGACCU [#AddUracilToBrourdLoops 6 - Jieux - Exclusion NG1] (puzzle (switch architecture): Exclusion NG 1) | 260 | 282 |  | 
ACAGGUCGUGAGAAGGCGGGUGGCACCGUCGAAAGACGGUGCAAUUAAAAUCUUCGAGGAUCACCCGAGGAUAUCACGACCUGA [#SharedSequence - IExNG2: 17] (puzzle (switch architecture): Inverted Exclusion NG 2) | 28.6 | 55.9 |  | 
UAAAUAAAUCCUAGAGGAUCACCCUAGGAUAUGAGGCUGCACCUCGGAUAAUCCGAGGUGCAGCCUCAGAAGGAGGGUAAUAAA [#SharedSequence - SLExNG3: 1-2] (puzzle (switch architecture): Small Loop Exclusion NG 3) | 43.1 | 14.4 |  | 
AGACCUGCUCAGAAGGCGGAUACGAGGCUGGAAACAGCCUCGUAAUUAAAUCUUCGAGGAUCACCCGAGGAUAUGAGCAGGUCA [#SharedSequence - IExNG2: 13] (puzzle (switch architecture): Inverted Exclusion NG 2) | 28.4 | 10.3 |  | 
UAUAUAUAAUAUAUUAACAUGAGGAUCACCCAUGUCGCUAGACAGGAUAUAUUUAAUAUUAUUAAGUAGAAGGGUCAUAUAAUU [LRO007_SS NG 3] |  |  | 77.4 | 78.6
AUAAUAACUUGAGGAUAUGCUCAGGAAUACUGAGCAGAAGGCAGGGAAACCUGAGGAUCACCCAGGUAAAUAAUAAUAAUAAUA [Same State NG1 - A3C, U17G Submission 1B] |  |  | 19.3 | 24.5
AAAACAUGAGGAUCACCCAUGUAAGAAUAAUUAAUUAUAAGUGAGGAUAUAUAAAUUAUAAAAUUGUAGAAGGCACUGGGUAUC [JR_SSNG3_Sub083] |  |  | 83.6 | 71
GCUGUCGCAUGAGGAUAUGGUCUGCUUUGCAGACCAGAAGGCAUGUCGAUAGACAUGAGGAUCACCCAUGUAGUAAAGACAGCA [Mat - Same State NG 1 - JL Mod - D49] |  |  | 57.1 | 306
AAAGAUUUUUAAGGAUAUGACUCCGAAACGGAGUCAGAAGGUGAGGAUCACCCACCUAGCUCAGGGUCGAAAGACCCUGAGCAA [#SharedSequence - ExNG1-13] (puzzle (switch architecture): Exclusion NG 1) | 9.48 | 9.02 |  | 
UCGUGUUUAACAGGAUAUCCUCAACGACACAUGAGGAUCACCCAUGUUCGGAGCCAAAUGGCUUAGGAGAAGGGUUAGAAACAA [Isceenvere] |  |  | 75.8 | 701
GGACUCACUUGAGGAUAUCGAGUGGAAUACACUCGAGAAGGCAGGAAAACCUGAGGAUCACCCAGGUAAGAGUCCAAUAAUAAU [Same State NG1 - A3C, U17G Submission 3C] |  |  | 17.1 | 17.9
CCUGCACUUCAAGGAUAUCCAGUCGUUUCGACUGGAGAAGGUGAGGAUCACCCACCUAGCCUGACGUUUGUCAGGCAUGCAGGU [#AddUracilToBrourdLoops 3 - Jieux - Exclusion NG1] (puzzle (switch architecture): Exclusion NG 1) | 8.78 | 8.76 |  | 
GGUCGACCUCAAGGAUAUGGACUGCUUUGCAGUCCAGAAGGUGAGGAUCACCCACCUACGGUCAGGUUUCUGACCGAUCGACCU [#AddUracilToBrourdLoops 2 - Jieux - Exclusion NG1] (puzzle (switch architecture): Exclusion NG 1) | 79.2 | 14.2 |  | 
ACUAGAAACGGGCAAUAACACAUGAGGAUCACCCAUGUGACACAGGAUAUAACCAGAUCAGAAAGUUAGAAGGGUGAGCCCGCA [Edraed Mod 1 - Jieux - Same State NG3] |  |  | 23.8 | 23.7
AAAGAUUUUUAAGGAUAUCAGUGGCAAAGCCACUGAGAAGGUGAGGAUCACCCAUCUACGUGACCCUGGAAACAGGGUCACGAA [#SharedSequence - ExNG1-16] (puzzle (switch architecture): Exclusion NG 1) | 96.9 | 56.7 |  | 
GGCCGGCAGCUAGGAUAUGGGCGGUCACAUGAGGAUCACCCAUGUCAACAUCAAAACCAGAUUAACCAGAAGGAGCUGCGAGUU [Arza] |  |  | 1230 | 27.6
AGAGCUGCUCAGAAGGAGGAUCACCCUUUCGAAAGAAAUACGGAGGCUGAAAAGCCUCCGAAAUUCUAGGAUAUGAGCAGCUCA [#SharedSequence - IExNG2: 7] (puzzle (switch architecture): Inverted Exclusion NG 2) | 133 | 167 |  | 
UUUGGGAGCACAGGAUAUGGCGCCUCGGAGGCGCCAGAAGGGUGAUUCUGUUGGUGGCCACAUGAGGAUCACCCAUGUGCCUCC [Rienorarve] |  |  | 19.2 | 15.9
CUAAUAUAGUGAGGAUAUGCACAGGAUCACCGUGUAGAAGGCAUCAGGUAGAAGGUGCAGAGGAUCACCCUGUAAGGAUAUACC [pwkr2 ssNG1 DX.4] |  |  | 32.4 | 69.4
UAGAAGCUCACAGGAUAUCAGUAUGCGCGAUCUAACGCAUUAAUGAACUGCUGAGAAGGGUGAGACAUGAGGAUCACCCAUGUA [Enesraadi] (puzzle (switch architecture): Small Loop Same State NG 1) | 395 | 236 |  | 
CGAGACACUUGAGGAUAUGCUCAGGAAUACUGAGCAGAAGGCAGGAAAACCUGAGGAUCACCCAGGUAACUGGAAAGUCUCGAA [Same State NG1 - A3C, U17G Submission 5E-G46A] |  |  | 16.9 | 19.6
GUAGCAUUCUGAGGAUAUUCAUACCGGAAACGGACAUGAGGAUCACCCAUGUGGCGAAAGCCUUGGGAGAAGGCAGUAUGCUAC [#DoubleMagnetSystem - Xeonanis 25 9 - Original] (puzzle (switch architecture): Same State NG 2) | 9.21 | 247 |  | 
